Test [1] addresses taxol-stabilized porcine brain GDP-microtubules (porcine) (UniProt P02550).
The target is the same in test [2]. This is another data set of the same source.

UniProt P02550, sequence (P02550 46-451): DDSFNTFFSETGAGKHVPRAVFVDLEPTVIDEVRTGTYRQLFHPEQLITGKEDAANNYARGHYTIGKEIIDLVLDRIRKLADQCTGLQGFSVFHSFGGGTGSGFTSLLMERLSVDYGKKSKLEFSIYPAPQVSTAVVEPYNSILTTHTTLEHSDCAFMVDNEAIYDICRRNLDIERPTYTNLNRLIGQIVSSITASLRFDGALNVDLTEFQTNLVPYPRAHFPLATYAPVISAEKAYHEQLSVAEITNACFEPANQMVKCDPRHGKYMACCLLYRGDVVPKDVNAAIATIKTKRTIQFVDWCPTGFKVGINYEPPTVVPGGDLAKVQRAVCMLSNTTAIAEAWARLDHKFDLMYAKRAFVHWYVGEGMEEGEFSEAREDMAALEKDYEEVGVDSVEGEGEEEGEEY

Substance GcKIF5A (enzyme) displayed a K (1/2,MT) of the microtubule-stimulated ATPase activity in test [1] of 4.2 µM. The microtubule detachment rate under load in test [2] turned out to be 3.9 s⁻¹.

“MmKIF5A (from UniProt P33175 1-1027) (enzyme)” showed a K (1/2,MT) of the microtubule-stimulated ATPase activity in test [1] of 2.2 µM. The microtubule detachment rate under load in test [2] is 1.3 s⁻¹.

For the origin of these results see publication doi:10.1101/2025.05.04.652084.
